In PMC4081113, “Cationic Surfactant-Based Colorimetric Detection of Plasmodium Lactate Dehydrogenase, a Biomarker for Malaria, Using the Specific DNA Aptamer”:

Legend:
[1] = target: Plasmodium vivax lactate dehydrogenase (PvLDH) (Plasmodium vivax, UniProt Q4PRK9 1-316); assay: colorimetric AuNP/CTAB aggregation assay (A650/A520); details: protein: recombinant; chain copies: 4
[2] = target: human lactate dehydrogenase A chain (hLDHA) (human, UniProt P00338 2-332); assay: colorimetric AuNP/CTAB aggregation assay (A650/A520); 1 uM protein, 4 nM CTAB; 20 mM HEPES pH 7.4, room temperature, 20 nM aptamer with protein 20 min, then 4 nM CTAB 20 min, then AuNPs 5 min (200 uL final)
fibrinogen = fibrinogen (human, UniProt P02671-2;P02675;P02679-2 20-644;31-491;27-437); assay: as above; details: protein: commercial; chain copies: 2;2;2
[3] = target: Plasmodium falciparum lactate dehydrogenase (PfLDH) (Plasmodium falciparum, UniProt Q76NM3 1-316); assay: colorimetric AuNP/CTAB aggregation assay (A650/A520); 4 nM CTAB, 20 nM aptamer; LOD 2.94 pM (not a Kd); 20 mM HEPES pH 7.4, room temperature, 20 nM aptamer with protein 20 min, then 4 nM CTAB 20 min, then AuNPs 5 min (200 uL final); details: protein: recombinant; chain copies: 4

Chain of fibrinogen (P02671 other isoform, or with tags, fused parts or gaps, chain 1 of 3): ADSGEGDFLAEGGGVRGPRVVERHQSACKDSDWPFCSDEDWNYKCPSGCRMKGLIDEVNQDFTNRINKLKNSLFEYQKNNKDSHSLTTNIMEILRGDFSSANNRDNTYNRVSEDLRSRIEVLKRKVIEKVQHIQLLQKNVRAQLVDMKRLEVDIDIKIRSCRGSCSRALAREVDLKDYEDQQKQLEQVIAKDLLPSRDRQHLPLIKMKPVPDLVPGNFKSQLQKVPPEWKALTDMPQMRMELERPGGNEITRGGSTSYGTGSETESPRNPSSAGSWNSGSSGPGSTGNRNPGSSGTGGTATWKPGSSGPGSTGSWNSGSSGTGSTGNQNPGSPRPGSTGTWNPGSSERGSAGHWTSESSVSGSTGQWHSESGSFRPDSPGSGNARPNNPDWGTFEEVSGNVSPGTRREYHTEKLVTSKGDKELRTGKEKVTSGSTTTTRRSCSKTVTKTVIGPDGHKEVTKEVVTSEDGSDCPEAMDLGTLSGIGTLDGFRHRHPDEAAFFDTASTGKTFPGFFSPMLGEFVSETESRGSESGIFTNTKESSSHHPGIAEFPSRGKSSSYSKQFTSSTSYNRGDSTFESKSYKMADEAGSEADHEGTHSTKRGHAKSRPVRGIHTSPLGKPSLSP
Chain of fibrinogen (P02675 31-491, chain 2 of 3): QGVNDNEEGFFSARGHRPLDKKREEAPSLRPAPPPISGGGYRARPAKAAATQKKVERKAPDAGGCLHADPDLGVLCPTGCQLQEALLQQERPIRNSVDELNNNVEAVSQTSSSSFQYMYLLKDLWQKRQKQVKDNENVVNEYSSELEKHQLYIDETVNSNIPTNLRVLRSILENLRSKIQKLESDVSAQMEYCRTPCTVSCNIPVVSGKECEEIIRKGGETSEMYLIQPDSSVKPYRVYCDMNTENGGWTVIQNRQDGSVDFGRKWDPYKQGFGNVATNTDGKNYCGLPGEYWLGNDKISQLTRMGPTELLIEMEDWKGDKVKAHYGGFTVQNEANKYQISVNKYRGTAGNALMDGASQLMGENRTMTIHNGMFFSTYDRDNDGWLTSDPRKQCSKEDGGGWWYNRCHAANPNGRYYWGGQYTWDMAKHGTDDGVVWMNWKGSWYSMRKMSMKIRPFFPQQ
Chain of fibrinogen (P02679 other isoform, or with tags, fused parts or gaps, chain 3 of 3): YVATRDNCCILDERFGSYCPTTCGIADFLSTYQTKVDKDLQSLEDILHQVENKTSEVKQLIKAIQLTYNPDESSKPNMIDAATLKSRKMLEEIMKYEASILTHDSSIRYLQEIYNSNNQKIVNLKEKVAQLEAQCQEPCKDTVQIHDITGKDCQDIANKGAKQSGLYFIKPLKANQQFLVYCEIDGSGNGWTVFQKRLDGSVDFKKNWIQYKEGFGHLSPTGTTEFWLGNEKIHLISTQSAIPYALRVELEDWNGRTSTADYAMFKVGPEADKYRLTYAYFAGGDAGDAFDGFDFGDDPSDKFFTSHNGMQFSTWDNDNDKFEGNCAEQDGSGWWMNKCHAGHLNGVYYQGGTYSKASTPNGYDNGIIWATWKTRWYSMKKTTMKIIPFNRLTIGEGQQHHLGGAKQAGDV

GTTCGATTGGATTGTGCCGGAAGTGCTGGCTCGAAC (ssDNA) [pL1 aptamer]
binding result [1]: binds | binding result [2]: no binding | binding result (fibrinogen): no binding | binding result [3]: binds
